This is an account of results in US20250002588A1.

What is called EC50 is the concentration that produces a half-maximal response. The low end stands for an effect from little substance, the high end for a need for much substance.

The target in the test is ALK-1/BMPR-2 receptor pair of the PathHunter U2Os dimerization cells (DiscoverX 93-0962C3) (UniProt P37023). Put plainly: cell-based or functional assay.
ALK-1/BMPR-2 receptor pair of the PathHunter U2Os dimerization cells (DiscoverX 93-0962C3), sequence (P37023 22-503, chain 1 of 2): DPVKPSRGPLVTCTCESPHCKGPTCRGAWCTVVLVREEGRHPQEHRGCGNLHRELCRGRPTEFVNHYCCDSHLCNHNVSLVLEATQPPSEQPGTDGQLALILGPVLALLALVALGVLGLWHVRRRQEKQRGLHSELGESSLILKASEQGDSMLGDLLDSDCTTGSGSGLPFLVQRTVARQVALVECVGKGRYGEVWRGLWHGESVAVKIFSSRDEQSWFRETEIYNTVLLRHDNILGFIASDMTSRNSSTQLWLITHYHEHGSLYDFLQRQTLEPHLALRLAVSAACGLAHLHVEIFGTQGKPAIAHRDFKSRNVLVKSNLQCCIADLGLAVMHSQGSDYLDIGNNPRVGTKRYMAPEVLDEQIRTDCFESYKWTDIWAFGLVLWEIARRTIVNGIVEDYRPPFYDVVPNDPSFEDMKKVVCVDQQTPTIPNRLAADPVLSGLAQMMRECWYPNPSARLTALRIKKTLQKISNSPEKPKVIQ
ALK-1/BMPR-2 receptor pair of the PathHunter U2Os dimerization cells (DiscoverX 93-0962C3), sequence (Q13873 27-1038, chain 2 of 2, further chain): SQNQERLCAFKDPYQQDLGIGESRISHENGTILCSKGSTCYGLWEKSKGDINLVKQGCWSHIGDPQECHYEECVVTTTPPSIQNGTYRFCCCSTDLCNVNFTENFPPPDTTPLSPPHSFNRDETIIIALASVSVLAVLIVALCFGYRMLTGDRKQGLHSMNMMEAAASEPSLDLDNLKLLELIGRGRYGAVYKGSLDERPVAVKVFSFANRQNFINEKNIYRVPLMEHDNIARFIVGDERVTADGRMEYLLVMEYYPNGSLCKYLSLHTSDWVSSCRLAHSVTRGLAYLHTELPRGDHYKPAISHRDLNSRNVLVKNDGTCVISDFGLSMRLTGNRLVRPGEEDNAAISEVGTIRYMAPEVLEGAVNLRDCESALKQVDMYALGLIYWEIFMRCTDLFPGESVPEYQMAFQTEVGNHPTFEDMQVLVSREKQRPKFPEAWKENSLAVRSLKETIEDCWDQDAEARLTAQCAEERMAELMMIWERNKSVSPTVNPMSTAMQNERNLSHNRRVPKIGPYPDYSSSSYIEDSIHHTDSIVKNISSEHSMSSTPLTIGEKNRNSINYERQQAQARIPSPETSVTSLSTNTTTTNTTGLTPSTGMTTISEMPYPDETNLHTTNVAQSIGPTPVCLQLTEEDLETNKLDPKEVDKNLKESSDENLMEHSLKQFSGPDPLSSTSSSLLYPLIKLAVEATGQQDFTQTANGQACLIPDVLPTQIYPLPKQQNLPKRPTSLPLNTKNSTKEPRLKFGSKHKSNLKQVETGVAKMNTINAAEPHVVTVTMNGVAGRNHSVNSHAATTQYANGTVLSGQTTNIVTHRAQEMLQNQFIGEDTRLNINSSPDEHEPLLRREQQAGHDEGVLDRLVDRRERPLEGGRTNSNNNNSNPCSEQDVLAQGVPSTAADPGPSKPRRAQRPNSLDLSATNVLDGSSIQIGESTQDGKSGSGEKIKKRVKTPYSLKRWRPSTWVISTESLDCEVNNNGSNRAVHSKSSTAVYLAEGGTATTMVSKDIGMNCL

B1: BMP10 (ligand, UniProt O95393 317-424, looked up)
chain: NAKGNYCKRTPLYIDFKEIGWDSWIIAPPGYEAYECRGVCNYPLAEHLTPTKHAIIQALVHLKNSQKASKACCVPTKLEPISILYLDKGVVTYKFKYEGMAVSECGCR
As for B1, the % Emax BMP9 was 97%, the EC50 was 0.1 nM and the EMAX (RLU) was found to be 2.57e+06 RLU.

B2: BMP9 (ligand, UniProt Q9UK05 320-429, looked up)
chain: SAGAGSHCQKTSLRVNFEDIGWDSWIIAPKEYEAYECKGGCFFPLADDVTPTKHAIVQTLVHLKFPTKVGKACCVPTKLSPISVLYKDDMGVPTLKYHYEGMSVAECGCR
Take B2: the % Emax BMP9 came out at 100%, the EC50 came to 0.02 nM and the EMAX (RLU) worked out at 2.64e+06 RLU.
